Tests used:
Assay in all cases: cell-based or functional assay
[1] = biological target: Modified IL-18 polypeptide of SEQ ID NO: 5 (S55A) (human, UniProt Q14116 37-193)
[2] = biological target: T1, Modified IL-18 polypeptide of SEQ ID NO: 11 (E06K, K53A, S55A, Y01G) (human, UniProt Q14116 38-193)
T1 chain: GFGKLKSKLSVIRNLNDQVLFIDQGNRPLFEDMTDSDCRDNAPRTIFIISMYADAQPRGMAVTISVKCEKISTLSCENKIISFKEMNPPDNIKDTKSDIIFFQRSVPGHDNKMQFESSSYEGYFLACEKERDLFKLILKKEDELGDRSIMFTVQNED

[3] = biological target: T2, Modified IL-18 polypeptide of SEQ ID NO: 14 (E06K, K53A, S55A, M51G) (human, UniProt Q14116 37-193)
T2 chain: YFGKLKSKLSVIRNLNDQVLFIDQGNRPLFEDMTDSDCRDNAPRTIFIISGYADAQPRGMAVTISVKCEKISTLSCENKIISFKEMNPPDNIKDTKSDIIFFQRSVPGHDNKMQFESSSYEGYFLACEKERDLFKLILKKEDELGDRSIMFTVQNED

[4] = biological target: T3, Modified IL-18 polypeptide of SEQ ID NO: 18 (E06K, K53A, T63A) (human, UniProt Q14116 37-193)
T3 chain: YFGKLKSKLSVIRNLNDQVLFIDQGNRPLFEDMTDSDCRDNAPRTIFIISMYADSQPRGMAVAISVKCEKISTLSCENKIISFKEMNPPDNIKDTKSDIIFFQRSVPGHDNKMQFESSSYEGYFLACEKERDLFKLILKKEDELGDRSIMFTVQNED

[5] = biological target: Modified IL-18 polypeptide of SEQ ID NO: 7 (E06K, K53A) (human, UniProt Q14116 37-193)
[6] = biological target: Modified IL-18 polypeptide of SEQ ID NO: 6 (E06K) (human, UniProt Q14116 37-193)
[7] = biological target: Modified IL-18 polypeptide of SEQ ID NO: 8 (E06K, S55A) (human, UniProt Q14116 37-193)

B1: Fc fused human IL-18BP isoform a (IL-18BPa) (Fc fusion, UniProt O95998 31-194, looked up, not shown: a dimerising Fc or GST)
chain: TPVSQTTTAATASVRSTKDPCPSQPPVFPAAKQCPALEVTWPEVEVPLNGTLSLSCVACSRFPNFSILYWLGNGSFIEHLPGRLWEGSTSRERGSTGTQLCKALVLEQLTPALHSTNFSCVLVDPEQVVQRHVVLAQLWAGLRATLPPTQEALPSSHSSPQQQG
IC50 (nM), IL-18BPa inhibition of IFNγ release by NK-92 cells (1 nM IL-18 analyte) [1]: 4.46 nM | IC50 (nM), IL-18BPa inhibition of IFNγ release by NK-92 cells (1 nM IL-18 analyte) [2]: 27.8 nM | IC50 (nM), IL-18BPa inhibition of IFNγ release by NK-92 cells (1 nM IL-18 analyte) [3]: 0.189 nM | IC50 (nM), IL-18BPa inhibition of IFNγ release by NK-92 cells (1 nM IL-18 analyte) [4]: > 1000 nM | IC50 (nM), IL-18BPa inhibition of IFNγ release by NK-92 cells (1 nM IL-18 analyte) [5]: > 703 nM | IC50 (nM), IL-18BPa inhibition of IFNγ release by NK-92 cells (1 nM IL-18 analyte) [6]: 7.79 nM | IC50 (nM), IL-18BPa inhibition of IFNγ release by NK-92 cells (1 nM IL-18 analyte) [7]: 15 nM

Reference: patent publication US20220056091A1 (BRIGHT PEAK THERAPEUTICS, published 2022)
